Substitutions are numbered along the chain they refer to.

One may read the Kd as the concentration at which binding is half-saturated.

What all share (experiment): fluorescence polarization; FP: 20 mM Tris-HCl pH 8.0, 50 mM NaCl, 5% glycerol, 1 mM DTT, 5 nM probe, room temperature; EMSA: 20 mM Tris-HCl pH 8.0, 100 mM NaCl, 5% glycerol, room temperature, protein 4x DNA
For orientation: Fluorescence polarisation rises when a labelled molecule tumbles more slowly, as on binding a larger partner.

For one data set, the target named is SBDSpr (SBD of SprMcrA) (Streptomyces pristinaespiralis, UniProt A0A0M4DML1 1-165). Conditions: protein: recombinant, tags: N-terminal 6xHis (pET28a), blunt; for binding result: label: 5'-FAM on one strand; for Kd: label: 5'-FAM on one strand (FP).
The target of another data set is T1, SBDSco E156D (Streptomyces coelicolor, UniProt Q9L0M9 90-250, E156D).
T1 sequence: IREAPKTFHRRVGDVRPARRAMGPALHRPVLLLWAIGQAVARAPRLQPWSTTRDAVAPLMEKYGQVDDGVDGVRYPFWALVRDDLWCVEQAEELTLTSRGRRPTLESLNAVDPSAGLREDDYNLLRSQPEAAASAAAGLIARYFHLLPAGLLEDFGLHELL
As to conditions: protein: recombinant; tags: 6xHis; label: 5'-FAM on one strand (FP); blunt.

A further data set addresses T2, SBDSco (SBD of ScoMcrA) (Streptomyces coelicolor, UniProt Q9L0M9 90-250).
T2 sequence: T1 sequence with D67E
Conditions: protein: recombinant; tags: N-terminal 6xHis (pET28a); label: 5'-FAM on one strand (FP); blunt.

A further data set deals with T3, SBDSco E156R/D157R (Streptomyces coelicolor, UniProt Q9L0M9 90-250, E156R;D157R).
T3 sequence: T1 sequence with D67R, D68R
As to conditions: protein: recombinant; tags: 6xHis; label: 5'-FAM on one strand (FP); blunt.

The target in the next data set is T4, SBDSco E156R (Streptomyces coelicolor, UniProt Q9L0M9 90-250, E156R).
T4 sequence: T1 sequence with D67R
As to conditions: protein: recombinant; tags: 6xHis; label: 5'-FAM on one strand (FP); blunt.

A further data set deals with T5, SBDSco E156L (Streptomyces coelicolor, UniProt Q9L0M9 90-250, E156L).
T5 sequence: T1 sequence with D67L
As to conditions: protein: recombinant; tags: 6xHis; label: 5'-FAM on one strand (FP); blunt.

In the next data set the target is T6, SBDSco E156K (Streptomyces coelicolor, UniProt Q9L0M9 90-250, E156K).
T6 sequence: T1 sequence with D67K
Conditions: protein: recombinant; tags: 6xHis; label: 5'-FAM on one strand (FP); blunt.

In another data set the target is T7, SBDSco E156Q (Streptomyces coelicolor, UniProt Q9L0M9 90-250, E156Q).
T7 sequence: T1 sequence with D67Q
As to conditions: protein: recombinant; tags: 6xHis; label: 5'-FAM on one strand (FP); blunt.

B1: PT-CCA-10 RP (hemi-PT) (dsDNA)
DNA 1: GAACCCAAGC
DNA 2: GCTTGGGTTC
modifications: RP phosphorothioate between C5 and C6 of strand 1
As to B1, in the data set with SBDSpr (SBD of SprMcrA), the binding result was “no binding”.

B2: PT-CCA-10 SP (hemi-PT) (dsDNA)
DNA 1: GAACCCAAGC
DNA 2: GCTTGGGTTC
modifications: SP phosphorothioate between C5 and C6 of strand 1
Take B2: the binding result with SBDSpr (SBD of SprMcrA) is recorded as “no binding”.

B3: PT-GAAC-10 RP (hemi-PT) (dsDNA)
DNA 1: GGCGAACGTG
DNA 2: CACGTTCGCC
modifications: RP phosphorothioate between G4 and A5 of strand 1
As to B3, the Kd with SBDSco E156D stood at 846 ± 74 nM; in the data set with SBDSco (SBD of ScoMcrA), 567 ± 37 nM; with SBDSpr (SBD of SprMcrA), 95 ± 25 nM; with SBDSco E156R/D157R, 183 ± 9 nM; with SBDSco E156R, 267 ± 15 nM; with SBDSco E156L, 499 ± 37 nM. Also, the Kd in the data set with SBDSco E156K amounted to 297 ± 19 nM; with SBDSco E156Q, 618 ± 43 nM.

B4: PT-GATC-10 SP (hemi-PT) (dsDNA)
DNA 1: GATGATCCTA
DNA 2: TAGGATCATC
modifications: SP phosphorothioate between G4 and A5 of strand 1
Regarding B4, in the data set with SBDSpr (SBD of SprMcrA), the binding result is “no binding”.

B5: PT-GATC-10 RP (hemi-PT) (dsDNA)
DNA 1: GATGATCCTA
DNA 2: TAGGATCATC
modifications: RP phosphorothioate between G4 and A5 of strand 1
Take B5: the Kd with SBDSco E156D turned out to be 1320 ± 99 nM; with SBDSco (SBD of ScoMcrA), 1090 ± 58 nM; in the data set with SBDSpr (SBD of SprMcrA), 38 ± 8 nM; with SBDSco E156R/D157R it was 192 ± 12 nM; with SBDSco E156R, 346 ± 17 nM; with SBDSco E156L, 791 ± 42 nM. Further, the Kd turned out to be 370 ± 14 nM in the data set with SBDSco E156K and 1020 ± 49 nM in the data set with SBDSco E156Q.

Source of the values: paper PMC7470945, “DNA backbone interactions impact the sequence specificity of DNA sulfur-binding domains: revelations from structural analyses”.
